Key:
[1] = target: hen eggwhite lysozyme (hen) (UniProt P00698); test: fluorescence quench titration with hen eggwhite lysozyme, in solution
[2] = target: hen eggwhite lysozyme (hen) (UniProt P00698); test: fluorescence quench titration with hen eggwhite lysozyme, in solution; reassociated chains

Sequence of UniProt P00698 (P00698 19-147 limits assumed): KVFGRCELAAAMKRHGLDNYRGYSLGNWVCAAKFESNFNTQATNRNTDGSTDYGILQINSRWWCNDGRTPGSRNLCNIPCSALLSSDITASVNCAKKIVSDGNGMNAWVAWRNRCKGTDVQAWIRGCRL

**Q.** For antilysozyme antibody D1.3 (H₂K₂), which Kd [1] is on record?
**A.** The Kd was 14.4 nM.

**Q.** And the Kd [2]?
**A.** The Kd was 11.4 nM.

**Q.** For “recombinant D1.3 (H*₂K₂) (reassociated) (antibody)”, which Kd [2] is on record?
**A.** The Kd was 9.2 nM.
